± gives the uncertainty stated by the source.

The nature of the data set: amyloid nucleation score (Sup35N fusion, yeast selection) (log enrichment); library NNK2; higher = more nucleation; inactive = no reads after selection. The procedure, abridged:
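Sup35N fusions to peptides of 20 random codons were expressed in psi-negative yeast, induced 24 hours with 100 μM copper sulfate, and grown 7 days at 30°C on medium lacking adenine and uracil. Input and output plasmid inserts were sequenced by Illumina. The nucleation score is the DiMSum log enrichment of output over input reads, centred on the mode score of non-aggregating sequences. Sequences with under 100 input reads were excluded.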
The substance GENTRSINVSSGMQEQSRKT came in with an amyloid nucleation score of 0.523 ± 0.38.

On to GEQVWCVGCPYVRWNSLHAG, for which the amyloid nucleation score came to 8.756 ± 0.037.

GESEVLSRRRQFFGRLWVCM: the amyloid nucleation score entry was “inactive”.

GETVGFKARFMLMHTSFLLR yielded an amyloid nucleation score of 4.902 ± 0.045.

GFEWSLSRIDLCSGFGLGAG showed an amyloid nucleation score of 1.24 ± 0.29.

In the case of GFHQFPVDVVALGWSILRCF, the amyloid nucleation score was -0.075 ± 0.31.

Substance GFLLCVSGVYLGCLLVNSSI displayed an amyloid nucleation score of 0.488 ± 0.56.

GFLYR displayed an amyloid nucleation score of -1.23 ± 0.3.

On to GFMKPSRYLNMVKFNCRLRS, for which the amyloid nucleation score entry is “inactive”.

In the case of GFNGRALKLERARDLVCGRM, the amyloid nucleation score was determined as 0.386 ± 0.29.

GFSIVNQDWYS came in with an amyloid nucleation score of 0.675 ± 0.35.

GFSSHSSFNHTI yielded an amyloid nucleation score of 1.37 ± 0.32.

Turning to GFVYYSVMVFLMLAFPYLRH, the amyloid nucleation score was -1.59 ± 0.64.

Turning to GGALGDFGTHEFNLNAPYSQ, the amyloid nucleation score entry is “inactive”.

In turn, GGDAQACVGHLSHKLCWLSV had an amyloid nucleation score of 1.65 ± 0.16.

Substance GGDAYGRINAASYARIPRLS showed an amyloid nucleation score of 0.902 ± 0.22.

Regarding GGFDYCFIMYHRNELDSGLG, the amyloid nucleation score was -0.646 ± 0.23.

Turning to GGIRYVSVFQIFASCCFSRV, the amyloid nucleation score was determined as 8.977 ± 0.05.

GGLAGWSGWNTQDELGCGTT: the amyloid nucleation score came to 0.775 ± 0.4.

Take GGMGHVFITCWGYVYIDYLV: the amyloid nucleation score amounted to 7.207 ± 0.025.

GGNTVSHQK registered an amyloid nucleation score of -0.427 ± 1.1.

Take GGRMHCARRTRMWVHLDAGM: the amyloid nucleation score was found to be 5.823 ± 0.049.

GGRRCGFITIRETNRTLLAL had an amyloid nucleation score of -0.28 ± 0.55.

In turn, GGTIYTLL gave an amyloid nucleation score of -1.01 ± 0.36.

The substance GGTNYANLMLALWFVVMIST showed an amyloid nucleation score of -0.295 ± 0.44.

In the case of GGTSAAS, the amyloid nucleation score came out at 1.01 ± 0.22.

As to GGWLYANGEYWWSTG, the amyloid nucleation score is 1.53 ± 0.58.

Regarding GGYDGVSQMCHFEITWNWMT, the amyloid nucleation score is 1.37 ± 0.29.

As for GGYDP, the amyloid nucleation score entry was “inactive”.

Turning to GGYICFQMFFYCVFARNY, the amyloid nucleation score is 1.27 ± 0.082.

Substance GHIQLRTVYGV came in with an amyloid nucleation score of 1.2 ± 0.68.

As to GHLRVFGVAKKLSTIMNLAR, the amyloid nucleation score was -0.274 ± 0.45.

GHMLLFTFFR gave an amyloid nucleation score of 5.965 ± 0.035.

The substance GHRNTDRSRREDRTKW gave an amyloid nucleation score of 4.82 ± 0.05.

In the case of GHSSFDQTAFSDSAGSLRML, the amyloid nucleation score result is “inactive”.

Consider GICPWTRLALFCRSGNVYRG, for which the amyloid nucleation score was determined as 1.34 ± 0.15.

GIFISISPPIGESSGNLQLN: the amyloid nucleation score entry is “inactive”.

GIIDV registered an amyloid nucleation score of -0.441 ± 1.1.

For GILVRRYAWSELMNGED, the amyloid nucleation score is 0.116 ± 0.49.

For the substance GIRVLRTRYSLELCMRCLLW, the amyloid nucleation score was determined as 0.126 ± 0.26.

Consider GISLGDNIRFYLDCTAAPGA, for which the amyloid nucleation score was -0.648 ± 0.42.

On to GITYVVHSTRGTYREPEGPW, for which the amyloid nucleation score came out at 0.469 ± 0.65.

For GKCRRPMCGGKFGDQGLLRL, the amyloid nucleation score was 3.27 ± 0.11.

GKFVLFRMMFNLVNYRSVLQ registered an amyloid nucleation score of -0.731 ± 0.25.

Turning to GKGNLQSCYEWKYKKLYVHT, the amyloid nucleation score was -0.248 ± 0.38.

For the substance GKIRIENGLRGSLGDIRHNI, the amyloid nucleation score is -0.623 ± 1.

Take GKLLLFSSWGRA: the amyloid nucleation score worked out at 0.083 ± 0.44.

In turn, GKNELYQVS yielded an amyloid nucleation score of 0.774 ± 0.41.

GKPNGGYSTAK came in with an amyloid nucleation score of 0.777 ± 0.4.

GKQTP showed an amyloid nucleation score of -0.711 ± 0.45.

GKRLSAFWQVVRSWLHIGGM had an amyloid nucleation score of 5.176 ± 0.035.

The substance GKVAAGVIGRYTY registered an amyloid nucleation score of -0.477 ± 0.22.

Substance GLDCIVSINRVQLTSAGLIE gave an amyloid nucleation score of 0.382 ± 0.47.

GLDITIGEA registered an amyloid nucleation score of -0.522 ± 0.63.

GLEFFLGYGYIAARHWVSGS yielded an amyloid nucleation score of 1.59 ± 0.13.

In turn, GLIGSERNSRVWRNYQMSCS registered an amyloid nucleation score of 2.99 ± 0.11.

The substance GLIYIRDFSFREKGGCYQGL came in with an amyloid nucleation score of -1.29 ± 1.1.

GLPRMRSRYTYRGKYVCMCM showed an amyloid nucleation score of 1.12 ± 0.36.

Consider GLRSLVHEARCRYKTSTSVK, for which the amyloid nucleation score is -0.939 ± 0.55.

The substance GLSCVFRMRIE had an amyloid nucleation score of 6.266 ± 0.05.

Consider GLSNLTYDFFPEKPP, for which the amyloid nucleation score is -1.45 ± 0.62.

For the substance GLSQILDDVGWICRVFELQR, the amyloid nucleation score was found to be 0.299 ± 0.37.

Substance GLSRLTRYNNGNITTHSNWH showed an amyloid nucleation score of -0.074 ± 1.1.

For GLTGRPQRLIVWAYDLERLW, the amyloid nucleation score is -0.09 ± 0.63.

Substance GLVGEGRACYVKHD displayed an amyloid nucleation score of 0.861 ± 0.57.

Substance GMADWNWFFPILFDPMGTGL had an amyloid nucleation score of -0.357 ± 0.49.

GMCYGGKFDY: the amyloid nucleation score is -0.356 ± 0.33.

With GMGSSRGQRSTYYYGDLAYA, the amyloid nucleation score is 0.96 ± 0.21.

GMICKWAWVSTGGKGVKCRE yielded an amyloid nucleation score of 0.272 ± 0.43.

The substance GMKSFR returned an amyloid nucleation score of -1.68 ± 1.1.

Regarding GMLFRWCG, the amyloid nucleation score is 7.56 ± 0.047.

On to GMLVELHYGPMY, for which the amyloid nucleation score was found to be 0.334 ± 0.56.

On to GMPFG, for which the amyloid nucleation score is 0.044 ± 0.28.

Substance GMPVLV had an amyloid nucleation score of 0.093 ± 0.26.

GMRGNSYAVSYRDIVVLAPC: the amyloid nucleation score was -0.007 ± 0.55.

On to GMRIFNYKNRDYWMACTAMT, for which the amyloid nucleation score entry was “inactive”.

For the substance GMRVMVLFDFLYYRCLENLL, the amyloid nucleation score was -0.632 ± 1.1.

Substance GMSITPWHWFGPCISFPDIN displayed an amyloid nucleation score of -0.55 ± 0.53.

GMVAICFYHM: the amyloid nucleation score came to 6.05 ± 0.046.

Regarding GMYLVENLLFRAQCRSTHWQ, the amyloid nucleation score came out at 1.25 ± 0.37.

Turning to GNCPLMPMKFRNRMSHSAFS, the amyloid nucleation score came to 0.517 ± 0.4.

As to GNGLFSVFYIFYAAGKRSVC, the amyloid nucleation score came out at 0.394 ± 0.62.

GNLLLSVITDQL returned an amyloid nucleation score of 4.69 ± 0.072.

As for GNMISERSKSSVHN, the amyloid nucleation score is -1.52 ± 1.1.

The substance GNSIVENFLCSRHQCYVM showed an amyloid nucleation score of 8.598 ± 0.046.

As for GNTLGRFMVLHT, the amyloid nucleation score is -0.199 ± 0.8.

For the substance GNVVMN, the amyloid nucleation score came out at 0.863 ± 0.18.

Consider GNWSVDGWQYCNRTHKCSYH, for which the amyloid nucleation score came to 2.41 ± 0.059.

As for GPFNNRRGQFYSVCIYFLLR, the amyloid nucleation score entry was “inactive”.

Turning to GPRSPAA, the amyloid nucleation score is 0.613 ± 0.34.

GPSLDLDNVDYIGDSTTYQL: the amyloid nucleation score result is “inactive”.

The substance GPVLGEFVEGSGNANGDEQV returned an amyloid nucleation score of -0.107 ± 1.

In turn, GPYFVNYPLKTNSIVLWELA yielded an amyloid nucleation score of 0.356 ± 0.8.

GQDITDTFTLNCSRGFTCIR yielded an amyloid nucleation score of 0.091 ± 0.34.

The substance GQLGNCLVSAAFLFAFIVLS came in with an amyloid nucleation score of 4.33 ± 0.075.

For the substance GQSLLLEPSGWVSSDIKMKG, the amyloid nucleation score was determined as 0.153 ± 0.79.

GQTLTRRKVKGRQRELTSGQ registered an amyloid nucleation score of 0.967 ± 0.36.

Substance GQVRSFCTGEG gave an amyloid nucleation score of -0.677 ± 1.

GREVHALPHEGMVDRSGRGT registered an amyloid nucleation score of 1.29 ± 0.16.

Substance GRIVVFV returned an amyloid nucleation score of 0.538 ± 0.39.

In the case of GRKLNFGQAFLWLYQVCWFM, the amyloid nucleation score result is “inactive”.

For GRMNTLDTFLTMAISDDASF, the amyloid nucleation score is -0.147 ± 0.46.

For GRRFLYKPAKTWYVVWHRGL, the amyloid nucleation score was found to be 0.229 ± 0.49.
